In the nanobody polyreactivity screen of Harvey et al. (2022):

Test: yeast display, Sf9 membrane polyspecificity reagent, FACS + sequencing; frameworks hold sequencing errors
Procedure, shortened: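 A synthetic nanobody library was expressed on Saccharomyces cerevisiae BJ5465 by galactose induction for 36–48 hours. The library was stained for 1 hour at 4 °C with 10% biotinylated, detergent-solubilized Sf9 membrane reagent and enriched with streptavidin microbeads before FACS. Low and high (top ~1%) gates were set on anti-HA fluorescence for expression and streptavidin fluorescence for reagent binding, and each polyreactivity label reflects the gate of origin.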

**Q.** For “QVQLVESGGGLVQAGGSLRLSCASSGRIFKYNAMGWYRQAPGKERELVAAISSSGARTYYADSVKGRFTISRDNAKNTVYLQMNSLKPEDTAVDYCAAPFTSNRSIRPYGYWGQGTQVTVSS”, which “polyreactivity (PSR sort gate)” value is on record?
**A.** high polyreactivity

**Q.** For “QVQLVESGGGLVQAGGSLRLSCASSGRIFPYYAMGRYRQAPGKERDLVAAITSVGSTNYADSVKGRFTISRDNAKNTVYLQINSLKPEDTAVYYCAAESTEGTSGDYDYWAQGTQVTVSS”, which “polyreactivity (PSR sort gate)” value is on record?
**A.** low polyreactivity

**Q.** For “QVQLVESGGGLVQAGGSLRLSCASSGRIFQYYVKGWYRQAPGKERELVAAITSGGGTKYADSVKGRFTISRDNENNTVYLQMNSLKPEDTAVYYCAAAWFDQYSRYDYWGQGTQVTVSS”, which “polyreactivity (PSR sort gate)” value is on record?
**A.** low polyreactivity

**Q.** With “QVQLVESGGGLVQAGGSLRLSCASSGRIFVFNAMGWYRPAPGKERELVAAINWSGGTTYYADSVKGRFTISRDNAKNTVYLQMNSVNPEDTAVYYCNAYLNRRMGYWGQGTQVTVSS” as the sequence, how does the “polyreactivity (PSR sort gate)” value read?
**A.** high polyreactivity

**Q.** Which “polyreactivity (PSR sort gate)” value does the source give for “QVQLVESGGGLVQAGGSLRLSCASSGRIFYGYAMVWYRQAPGKERELVAAIRWYGGNTYYADSVKGRFTISRDNAKNTVYLQMNSLKPEDTAVYYCAARAYYARFVMGYWGQGTQVSVSS” here?
**A.** high polyreactivity

**Q.** With “QVQLVESGGGLVQAGGSLRLSCASSGRTFGLYDMGWYRQAPGKERELVAGITRRGGRTYYADSVKGRFTISRDNAKNPVELLMHCRKPEDTAVYYCNKVVTRWNQRWRYSEGNYWGQGTQVTVSS” as the sequence, how does the “polyreactivity (PSR sort gate)” value read?
**A.** high polyreactivity

**Q.** With “QVQLVESGGGLVQAGGSLRLSCASSGRTFPAYAMGWYRPAPGKERELVAAISSSGSRTYYAASVKGRFTISRDNAKNTVYLQMNRLIPEDTAVYYCAARGGRRQKVNRDDYWGQVTQVTVSS” as the sequence, how does the “polyreactivity (PSR sort gate)” value read?
**A.** high polyreactivity

**Q.** For “QVQLVESGGGLVQAGGSLRLSCASSGRTFPGNAMGWYRPAPGKERELVAAISWSGTRTYYADSVKGRFTISRDNAKNTVSLKMNSLKPEDTAVYSCNVVVKGAWDYYPYDYWGQGTQVTVSS”, which “polyreactivity (PSR sort gate)” value is on record?
**A.** high polyreactivity

**Q.** For “QVQLVESGGGLVQAGGSLRLSCASSGRTFRPYAKGWYRPAPGKDRELVAAITGGTRTYYADSVKGRFTISRDNAKNTVYLQMNSLKPEDTAGYYCAKGDFFSKHDYWGQGTQVTVSS”, which “polyreactivity (PSR sort gate)” value is on record?
**A.** low polyreactivity

**Q.** For “QVQLVESGGGLVQAGGSLRLSCASSGRTFRRYARGWYRQAPGKERELVATIRSGDNTNYADSVKGRFTISRDNAKNTVYLQMNSLKPEDTAVYYCNRSPKSGQVTYLYSVNAHYDYWGQGTQVTVSS”, which “polyreactivity (PSR sort gate)” value is on record?
**A.** low polyreactivity

**Q.** With “QVQLVESGGGLVQAGGSLRLSCASSGRTFRYYAKGWYRQAPGKERELVATISSGGSTNYADSVKGRFTISRDNAKNTVYFQMNSLKPEDTAVYYCAAAKYVTYLSIYYYWGQGTQVTVSS” as the sequence, how does the “polyreactivity (PSR sort gate)” value read?
**A.** high polyreactivity

**Q.** For “QVQLVESGGGLVQAGGSLRLSCASSGRTFTYNAMGWYRQAPGKERELVAVIRYSGGTTYYADSVKGRFTISRDNAKNTVYFQMNRLIPEDTAVYYCAADSWSRSVNYYYWGQGTQVTVSS”, which “polyreactivity (PSR sort gate)” value is on record?
**A.** low polyreactivity

**Q.** For “QVQLVESGGGLVQAGGSLRLSCASSGRTFVFYAMGWYRHAPGKERELVAAITSGTSTNYADSVKGRFTISRDNAKNTVYLQMISLKPEDTAVYYCAAYWTDVTYSIGFGYWGQGTQVTVSS”, which “polyreactivity (PSR sort gate)” value is on record?
**A.** low polyreactivity

**Q.** For “QVQLVESGGGLVQAGGSLRLSCASSGSIFGGNAMGWYRQAPGKERELVAAITQSGDRTYYADSVKGRFTISRDNAKNTVYLQMNSLKPEDTAVYYCAARSPRKYGSIGYYWGQGTEVTVSS”, which “polyreactivity (PSR sort gate)” value is on record?
**A.** high polyreactivity

**Q.** With “QVQLVESGGGLVQAGGSLRLSCASSGSIFTGNVMGWYRQAPGKERELVAAISSRGGNTYYADSVKGRFTISRDNAKNTVYLQMNSLKPEDTAVYYCNKVKYTWYDWGQGTQVTVSS” as the sequence, how does the “polyreactivity (PSR sort gate)” value read?
**A.** high polyreactivity

**Q.** Which “polyreactivity (PSR sort gate)” value does the source give for “QVQLVESGGGLVQAGGSLRLSCASSGSNFGRYAMGWYRQAPGKEREFVAAISRSSDNTSYADSVKGRFTISRDIAKNTVYLQMNRLNPEDRAVYYCNADRPFSLGQRKYVDFDEPYNYWGQGTQVTVSS” here?
**A.** low polyreactivity

**Q.** With “QVQLVESGGGLVQAGGSLRLSCASSGSTFFTNVMVRYRQAPGKERELVAAIDQRDGRTYYADSVKGRFTISRDNAKNTVYLQMNSLKPEDTAVYYSNAGTDGYQFYFGFADYDYWGQGTQVTVSA” as the sequence, how does the “polyreactivity (PSR sort gate)” value read?
**A.** low polyreactivity
